Experimental data published in the supplement of paper PMC12042874.
± gives the uncertainty stated by the source.

Assay: amyloid nucleation score (Sup35N fusion, yeast selection) (log enrichment); library NNK3; higher = more nucleation; inactive = no reads after selection
How it was run: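 Plasmid inserts were Illumina-sequenced at input and output from psi-negative yeast expressing Sup35N fused to peptides of 20 random codons. The yeast were induced with 100 μM copper sulfate for 24 hours and grown 7 days at 30°C on medium lacking adenine and uracil, and sequences with under 100 input reads were excluded. Nucleation score is the DiMSum log enrichment of output over input reads, centred on the mode score of non-aggregating sequences.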

HVTSVMIFIIASIMYVEIKY
amyloid nucleation score: 0.339 ± 0.34

HVYMGSFVPR
amyloid nucleation score: inactive

HWCVPL
amyloid nucleation score: inactive

HWCYRSFMTPAPPNLLPQPQ
amyloid nucleation score: inactive

HWGWVTSIESVVRRFCNNFC
amyloid nucleation score: inactive

HWIISYQAGCFHLNTFKIMY
amyloid nucleation score: inactive

HYQHVFLAFNSVLQSPILRE
amyloid nucleation score: inactive

HYRDFPSRN
amyloid nucleation score: inactive

HYVKPSSESRR
amyloid nucleation score: inactive

HYYINNTWMFKVYNRLLKRR
amyloid nucleation score: 2.51 ± 0.057

IAAPRGMTDSRVVMRCLHVN
amyloid nucleation score: inactive

IALKGRAFAHEGCLRGRRGG
amyloid nucleation score: inactive

IALVMSIDVAVVLMYPSPQW
amyloid nucleation score: 0.381 ± 0.24

IAQILDVQFSVHAIGVSRDM
amyloid nucleation score: inactive

ICDHVYVGNFLTQA
amyloid nucleation score: inactive

ICELLRFDPMLTCFRM
amyloid nucleation score: 0.77 ± 0.2

ICGRTYVRVT
amyloid nucleation score: -0.775 ± 1.1

ICLDKITDAIYMDYNRAFSC
amyloid nucleation score: inactive

ICLYLRQVKLIAGAERKKVQ
amyloid nucleation score: inactive

ICMYRRLRISCVLAYRFRHF
amyloid nucleation score: inactive

ICPWDIQRINMLMGRVDWLR
amyloid nucleation score: inactive

ICQWDVKMPRCATG
amyloid nucleation score: inactive

ICTPENT
amyloid nucleation score: -0.303 ± 0.9

ICYSNDSLYMLLESS
amyloid nucleation score: inactive

IDELLSLQLHRIHKLLEMHG
amyloid nucleation score: inactive

IDGSYAFSKKPDPNSVKYIM
amyloid nucleation score: inactive

IDLRVTRNIFQSATLLMFFW
amyloid nucleation score: inactive

IDRLLLNTKYIVQGLPNWTK
amyloid nucleation score: inactive

IDWLKRVVEVTSVEGAYCWW
amyloid nucleation score: inactive

IERSNFLQCPVRGLRNTARV
amyloid nucleation score: 0.526 ± 0.26

IEVGYITWKSARVWATNSSH
amyloid nucleation score: inactive

IEVKDSVGVRCFYTYSPTCQ
amyloid nucleation score: inactive

IEVYYSNRSWCLRQIRGCTG
amyloid nucleation score: inactive

IFLKNCLLWKTAGSFMNSIA
amyloid nucleation score: inactive

IFNWPSQTVLHIYKSAHVNM
amyloid nucleation score: 2.35 ± 0.066

IFPFFVSL
amyloid nucleation score: inactive

IFRSHMQSLGK
amyloid nucleation score: inactive

IFSRLGFVCLIMFTC
amyloid nucleation score: inactive

IFTLMINCLE
amyloid nucleation score: 0.809 ± 0.1

IFVILW
amyloid nucleation score: 0.101 ± 0.6

IFVVYFGISTIRNT
amyloid nucleation score: 1.32 ± 0.097

IGAIYACRLFVRGLASFLTL
amyloid nucleation score: inactive

IGDNCCIWMLDVHSVTLVSE
amyloid nucleation score: 0.329 ± 0.2

IGEILIVFALTRNTVVGYGF
amyloid nucleation score: inactive

IGFRWY
amyloid nucleation score: inactive

IGGRTDNSELTCTRGMRFLC
amyloid nucleation score: inactive

IGINVRALRRGLTLVPL
amyloid nucleation score: inactive

IGISSGVTKICYGGTFKHMP
amyloid nucleation score: inactive

IGNLLLGCRPSQNSLRAHTS
amyloid nucleation score: inactive

IGRMKRSIGRCDPVWWNWVQ
amyloid nucleation score: inactive

IGRTLSHSATRLVCTDPFRR
amyloid nucleation score: inactive

IGSSRIDFSSRNYGV
amyloid nucleation score: 0.576 ± 0.12

IHDDSKNGK
amyloid nucleation score: 0.57 ± 0.16

IHHQC
amyloid nucleation score: inactive

IHLVFREDITLVWVWNWIHV
amyloid nucleation score: inactive

IHTGKMLTYCFKSNLSVRTS
amyloid nucleation score: inactive

IIELYT
amyloid nucleation score: inactive

IIGPGYFFYLKLYA
amyloid nucleation score: 0.549 ± 0.27

IIISSFSDWCYFGRDDSCRM
amyloid nucleation score: -0.36 ± 0.63

IILVSYVREMKHSSSSFVLS
amyloid nucleation score: 2.04 ± 0.098

IIMGV
amyloid nucleation score: inactive

IIMSLLIALP
amyloid nucleation score: 0.653 ± 0.18

IIPYCRS
amyloid nucleation score: inactive

IIPYHEFIVGALVSHRWCQD
amyloid nucleation score: inactive

IIVSRWLWWDIGVSRNW
amyloid nucleation score: inactive

IIWLWGNNGKYTMGFLGIGG
amyloid nucleation score: inactive

IIYFRVISIGYSWGIVRDRF
amyloid nucleation score: inactive

IKAPRFYAPFLLIVSQWVST
amyloid nucleation score: inactive

IKDIFACSMCFTTKSNAAHY
amyloid nucleation score: 3 ± 0.053

IKFIERWYQFTYVHCLQVMG
amyloid nucleation score: -0.247 ± 0.64

IKKHCV
amyloid nucleation score: inactive

IKRGRTVQKVFCMWVVSYPR
amyloid nucleation score: inactive

IKVISLEAMKTYCF
amyloid nucleation score: inactive

ILDAEVFGLISGFMSMHCNA
amyloid nucleation score: inactive

ILENVA
amyloid nucleation score: inactive

ILEVGRQCMDGFCSKFNGEY
amyloid nucleation score: inactive

ILFRYFISGMVVWGDNMENE
amyloid nucleation score: inactive

ILFVAGIETFSALSFRWTGV
amyloid nucleation score: inactive

ILINSRFMRFVFRAGHRV
amyloid nucleation score: inactive

ILISMEPPLFRDTLKNTGNC
amyloid nucleation score: inactive
